Results taken from patent US10253076B2, “Peptides and combination of peptides for use in immunotherapy against ovarian cancer and other cancers” (immatics biotechnologies GmbH, priority 2015, dated 2019).

biological target: HLA-A*02:01 (Homo sapiens, UniProt P04439, D140Y/D185E/D98H/E176V/E277Q/G131W/G231S/I119V/I121R/I166T/I218V/L300P/L318F/N151K/N90K/P208A/P217A/Q86G/Q94H/R138H/R169H/T345S); assay: MHC binding assay (UV-ligand exchange, beta2m ELISA, peptide exchange yield); conditions: binding of HLA-class I restricted peptides to HLA-A*02:01, ranged by peptide exchange yield (UV-ligand exchange, β2m ELISA)
Excerpt: Candidate peptides for T cell based therapies according to the present invention were further tested for their MHC binding capacity (affinity). The individual peptide-MHC complexes were produced by UV-ligand exchange, where a UV-sensitive peptide is cleaved upon UV-irradiation, and exchanged with the peptide of interest as analyzed. Only peptide candidates that can effectively bind and stabilize the peptide-receptive MHC molecules prevent dissociation of the MHC complexes. To determine the yield of the exchange reaction, an ELISA was performed based on the detection of the light chain (β2m) of stabilized MHC complexes. The assay was performed as generally described in Rodenko et al. (Rodenko et al., 2006).
96 well MAXISorp plates (NUNC) were coated over night with 2ug/ml streptavidin in PBS at room temperature, washed 4× and blocked for 1 h at 37° C. in 2% BSA containing blocking buffer. […] Peptide-MHC monomers of the UV-exchange reaction were diluted 100 fold in blocking buffer. Samples were incubated for 1 h at 37° C., washed four times, incubated with 2ug/ml HRP conjugated anti-82m for 1 h at 37° C., washed again and detected with TMB solution that is stopped with […]. Absorption was measured at 450 nm. Candidate peptides that show a high exchange yield (preferably higher than 50%, most preferred higher than 75%) are generally preferred for a generation and production of antibodies or fragments thereof, and/or T cell receptors or fragments thereof, as they show sufficient avidity to the MHC molecules and prevent dissociation of the MHC complexes.

Row | Peptide exchange | Substance
1 | ″+″ (≥10% = +) | 520 (LAVHPSGVAL; listed as Homo sapiens) [compound 520]
2 | ″++″ (≥20% = ++) | 217 (ALIHPVSTV; listed as Homo sapiens) [compound 217]
3 | ″++″ (≥20% = ++) | 180 (FQIDPHSGLVTV; listed as Homo sapiens) [compound 180]
4 | ″++″ (≥20% = ++) | 382 (ALQNYIKEA; listed as Homo sapiens) [compound 382]
5 | ″++″ (≥20% = ++) | 524 (ALIENLTHQI; listed as Homo sapiens) [compound 524]
6 | ″++″ (≥20% = ++) | 9 (GAAKDLPGV; listed as Homo sapiens) [compound 9]
7 | ″+++″ (≥50% = +++) | 307 (ALPVSLPQI; listed as Homo sapiens) [compound 307]
8 | ″+++″ (≥50% = +++) | 129 (GLLDGGVDILL; listed as Homo sapiens) [compound 129]
9 | ″+++″ (≥50% = +++) | 561 (YLQLTQSEL; listed as Homo sapiens) [compound 561]
10 | ″++″ (≥20% = ++) | 31 (YLAPELFVNV; listed as Homo sapiens) [compound 31]
11 | ″++″ (≥20% = ++) | 253 (GLDAATATV; listed as Homo sapiens) [compound 253]
12 | ″+++″ (≥50% = +++) | 39 (SVAPNLPAV; listed as Homo sapiens) [compound 39]
13 | ″+++″ (≥50% = +++) | 549 (AMLENASDIKL; listed as Homo sapiens) [compound 549]
14 | ″++″ (≥20% = ++) | 400 (SLLTEQDLWTV; listed as Homo sapiens) [compound 400]
15 | ″+++″ (≥50% = +++) | 88 (FLLVGDLMAV; listed as Homo sapiens) [compound 88]
16 | ″++″ (≥20% = ++) | 566 (VIADGGIQNV; listed as Homo sapiens) [compound 566]
17 | ″++″ (≥20% = ++) | 615 (VLPPDTDPA; listed as Homo sapiens) [compound 615]
18 | ″+++″ (≥50% = +++) | 27 (ILADIVISA; listed as Homo sapiens) [compound 27]
19 | ″++++″ (≥75% = ++++) | 289 (VLLEIEDLQV; listed as Homo sapiens) [compound 289]
20 | ″++″ (≥20% = ++) | 565 (ALQETPTSV; listed as Homo sapiens) [compound 565]
21 | ″++++″ (≥75% = ++++) | 91 (IMQDFPAEIFL; listed as Homo sapiens) [compound 91]
22 | ″+++″ (≥50% = +++) | 328 (ALNDQVFEI; listed as Homo sapiens) [compound 328]
23 | ″++″ (≥20% = ++) | 226 (MLYVVPIYL; listed as Homo sapiens) [compound 226]
24 | ″++″ (≥20% = ++) | 459 (ALITEVVRL; listed as Homo sapiens) [compound 459]

Row | Peptide exchange | Substance
25 | ″+++″ (≥50% = +++) | 439 (YLLQEIYGI; listed as Homo sapiens) [compound 439]
26 | ″+++″ (≥50% = +++) | 498 (KLWTGGLDNTV; listed as Homo sapiens) [compound 498]
27 | ″++″ (≥20% = ++) | 526 (RLAEVGQYEQV; listed as Homo sapiens) [compound 526]
28 | ″+++″ (≥50% = +++) | 427 (ALLPLSPYL; listed as Homo sapiens) [compound 427]
29 | ″+++″ (≥50% = +++) | 195 (GLFADLLPRL; listed as Homo sapiens) [compound 195]
30 | ″++++″ (≥75% = ++++) | 10 (FLATFPLAAV; listed as Homo sapiens) [compound 10]
31 | ″+++″ (≥50% = +++) | 66 (FLDENIGGVAV; listed as Homo sapiens) [compound 66]
32 | ″+++″ (≥50% = +++) | 302 (ALLQEGEVYSA; listed as Homo sapiens) [compound 302]
33 | ″+++″ (≥50% = +++) | 572 (ALADLIEKELSV; listed as Homo sapiens) [compound 572]
34 | ″+++″ (≥50% = +++) | 54 (SLLEQGKEPWMV; listed as Homo sapiens) [compound 54]
35 | ″+++″ (≥50% = +++) | 135 (ALSEVDFQL; listed as Homo sapiens) [compound 135]
36 | ″+++″ (≥50% = +++) | 205 (SLYPGTETMGL; listed as Homo sapiens) [compound 205]
37 | ″++++″ (≥75% = ++++) | 553 (SLLNQDLHWSL; listed as Homo sapiens) [compound 553]
38 | ″+++″ (≥50% = +++) | 614 (LLLPDQPPYHL; listed as Homo sapiens) [compound 614]
39 | ″++++″ (≥75% = ++++) | 620 (KLLNKIYEA; listed as Homo sapiens) [compound 620]
40 | ″+++″ (≥50% = +++) | 525 (VLLEAGEGLVTI; listed as Homo sapiens) [compound 525]
41 | ″+++″ (≥50% = +++) | 463 (SLVESHLSDQLTL; listed as Homo sapiens) [compound 463]
42 | ″+++″ (≥50% = +++) | 600 (ALAAPDIVPAL; listed as Homo sapiens) [compound 600]
43 | ″++″ (≥20% = ++) | 505 (SLAPGDVVRQV; listed as Homo sapiens) [compound 505]
44 | ″+++″ (≥50% = +++) | 508 (ILAQEQLVVGV; listed as Homo sapiens) [compound 508]
45 | ″+++″ (≥50% = +++) | 134 (YLQELIFSV; listed as Homo sapiens) [compound 134]
46 | ″++″ (≥20% = ++) | 115 (AIAGAGILYGV; listed as Homo sapiens) [compound 115]
47 | ″+++″ (≥50% = +++) | 149 (NLLELFVQL; listed as Homo sapiens) [compound 149]
48 | ″+++″ (≥50% = +++) | 336 (ILLTAIVQV; listed as Homo sapiens) [compound 336]

Row | Peptide exchange | Substance
49 | ″++″ (≥20% = ++) | 93 (LLQAIKLYL; listed as Homo sapiens) [compound 93]
50 | ″+++″ (≥50% = +++) | 174 (ALAQYLITA; listed as Homo sapiens) [compound 174]
51 | ″++++″ (≥75% = ++++) | 108 (ALFPGVALLLA; listed as Homo sapiens) [compound 108]
52 | ″++++″ (≥75% = ++++) | 611 (YLLDDGTLVV; listed as Homo sapiens) [compound 611]
53 | ″++″ (≥20% = ++) | 374 (FLLQQHLISA; listed as Homo sapiens) [compound 374]
54 | ″++″ (≥20% = ++) | 453 (KLLEATSAV; listed as Homo sapiens) [compound 453]
55 | ″+++″ (≥50% = +++) | 390 (ALFMKQIYL; listed as Homo sapiens) [compound 390]
56 | ″+++″ (≥50% = +++) | 528 (SVAEGRALMSV; listed as Homo sapiens) [compound 528]
57 | ″++++″ (≥75% = ++++) | 371 (FLQAHLHTA; listed as Homo sapiens) [compound 371]
58 | ″+++″ (≥50% = +++) | 556 (FLTDLEDLTL; listed as Homo sapiens) [compound 556]
59 | ″++++″ (≥75% = ++++) | 52 (FLLAHGLGFLL; listed as Homo sapiens) [compound 52]
60 | ″++″ (≥20% = ++) | 431 (SLVNVVPKL; listed as Homo sapiens) [compound 431]
61 | ″+++″ (≥50% = +++) | 200 (LLFGSVQEV; listed as Homo sapiens) [compound 200]
62 | ″+++″ (≥50% = +++) | 495 (FIFSEKPVFV; listed as Homo sapiens) [compound 495]
63 | ″+++″ (≥50% = +++) | 357 (SMHDLVLQV; listed as Homo sapiens) [compound 357]
64 | ″+++″ (≥50% = +++) | 179 (KVLNELYTV; listed as Homo sapiens) [compound 179]
65 | ″++++″ (≥75% = ++++) | 89 (YILPTETIYV; listed as Homo sapiens) [compound 89]
66 | ″++″ (≥20% = ++) | 402 (VLFSGALLGL; listed as Homo sapiens) [compound 402]
67 | ″++++″ (≥75% = ++++) | 321 (GLFEDVTQPGILL; listed as Homo sapiens) [compound 321]
68 | ″+++″ (≥50% = +++) | 188 (GLFPVTPEAV; listed as Homo sapiens) [compound 188]
69 | ″+++″ (≥50% = +++) | 497 (GLLEKLTAI; listed as Homo sapiens) [compound 497]
70 | ″++++″ (≥75% = ++++) | 51 (LLPDLEFYV; listed as Homo sapiens) [compound 51]
71 | ″++″ (≥20% = ++) | 491 (GLNDRSDAV; listed as Homo sapiens) [compound 491]
